According to patent US20230416410A1 (ZOETIS SERVICES, published 2023):
Changes are numbered by the printed parent chain. Blank lines part the entries; values can stand above or below the binder they belong to.

How the values were obtained:
Assay in all cases: SPR Biacore, biotinylated receptor on SA sensor, pH 7.4, 15 C
[1] = target: T1, CTLA4 Fc bIgG1aWin (canine; bovine, UniProt Q9XSI1 36-161, limits assumed)
T1 construct: No linker
T1 sequence: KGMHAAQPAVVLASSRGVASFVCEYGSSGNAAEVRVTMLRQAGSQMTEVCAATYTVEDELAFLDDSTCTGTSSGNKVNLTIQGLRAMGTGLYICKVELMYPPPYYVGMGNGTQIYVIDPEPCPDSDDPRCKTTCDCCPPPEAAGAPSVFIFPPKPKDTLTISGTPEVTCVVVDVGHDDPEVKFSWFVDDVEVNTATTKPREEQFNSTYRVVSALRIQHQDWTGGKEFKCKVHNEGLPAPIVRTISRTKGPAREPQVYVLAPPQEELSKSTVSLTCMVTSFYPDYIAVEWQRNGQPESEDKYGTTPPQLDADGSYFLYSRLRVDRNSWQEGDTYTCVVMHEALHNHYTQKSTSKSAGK
Description: (§1) A Biacore SPR binding assay was designed to test the affinity of bovine IgG subclasses to bFcgR1, bFcgR2 and bFcgR3. All reported KD's were measured by Biacore (Cytiva, Marlborough, MA, USA) using series S SA sensor. Biotinylated-bovine FcgR1, R2 and R3 were captured on the sensor surface using a modified SA capture method to reach the desired surface density. 10 mM HEPES, 150 mM NaCl, 3 mM EDTA, 0.05% v/v surfactant P20, pH7.4 buffer was used as the running and titration buffer. Various concentrations of bovine CTLA4-Fc fusions or mAbs were titrated and flowed over the receptor surface and affinities were determined using Biacore T200 Evaluation software (Cytiva, Marlborough, MA, USA) with 1:1 binding model. The method of double referencing has been applied where the reference flow cell was subtracted from the flow cell containing immobilized receptors and blank runs containing buffer only were subtracted out from all runs. Flow cells were regenerated using 10 mM Glycine pH1.5. Runs were performed at 15° C.
(§2) The ability to knock out binding to bovine Fc gamma receptors was evaluated by comparing SPR Biacore bFcgR affinity of bIgG1a and bIgG1b wildtype Fc to the bIgG1a and bIgG1b mutations, described above. All mutations made to bIgG1 are identical for the a and b allotypes. Biacore methods for bFcgR1, R2, and R3 were performed as described in Example 1.

[2] = target: T2, CTLA4 Fc bIgG1aSAP (canine; bovine, UniProt Q9XSI1 36-161, limits assumed)
T2 construct: No linker
T2 sequence: T1 sequence with A142L, A143P, A145G, P237S
Description: as §1, §2

[3] = target: T3, CTLA4 Fc bIgG3aWinSAS (canine; bovine, UniProt Q9XSI1 36-161, limits assumed)
T3 construct: No linker
T3 sequence: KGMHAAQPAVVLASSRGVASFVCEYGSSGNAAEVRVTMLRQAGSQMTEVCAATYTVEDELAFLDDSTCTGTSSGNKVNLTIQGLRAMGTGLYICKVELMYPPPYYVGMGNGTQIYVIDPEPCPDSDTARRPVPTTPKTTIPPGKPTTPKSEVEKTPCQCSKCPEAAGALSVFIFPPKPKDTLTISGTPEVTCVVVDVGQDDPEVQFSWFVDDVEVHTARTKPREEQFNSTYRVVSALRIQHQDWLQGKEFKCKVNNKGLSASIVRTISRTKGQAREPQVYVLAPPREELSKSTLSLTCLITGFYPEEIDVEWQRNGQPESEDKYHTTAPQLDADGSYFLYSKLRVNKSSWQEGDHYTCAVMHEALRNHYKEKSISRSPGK

[4] = target: T4, CTLA4 Fc bIgG3aSAS (canine; bovine, UniProt Q9XSI1 36-161, limits assumed)
T4 construct: No linker
T4 sequence: T3 sequence with A165P, A166L, A168G

[5] = target: T5, CTLA4 Fc bIgG3aSAP (canine; bovine, UniProt Q9XSI1 36-161, limits assumed)
T5 construct: No linker
T5 sequence: T3 sequence with A165P, A166L, A168G, S262P

Kd [1]: 2.79 nM | binding result [2]: no binding | binding result [3]: no binding | binding result [4]: no binding | binding result [5]: no binding
B1: recombinant bovine FcgR2 (receptor)
chain: KPDLPKAVVTIQPAWINVLREDHVTLTCQGTSFSAGNLTTWFHNGSSIHTQKQPSYSFRAGSNDSGSYRCQREQTSLSDPVHLDVISDWLLLQTPSLVFQEGEPIMLRCHSWRNQPLNKITFYQDRKSKIFSYQRTNFSIPRANLSHSGQYHCTAFIGKMLHSSQPVNITVQESSSSGPSSMTHHHHHHAGLNDIFEAQKIEWHE
modifications: biotin on the BAP tag (BirA)
notes: also called bFcgR2; bFcgRII

binding result [1]: no binding | binding result [2]: no binding
B2: recombinant bovine FcgR3 (receptor)
chain: DTQTADPSKAVVLLDPQWNHVLTNDRVTLKCQGDYPVEDNSTKWWHNGTLISSQTPSYFIADVKVQDSGEYKCQTGLSAPSDPVKLEVHVGWLLLQVAQRVVNVGKPIRLKCHSWKKTPVAKVQYFRNGRGKKYSHGNSDFHIPEAKLEHSGSYFCRGIIGSKNESSESVQITVQAPETLQTVSSFFLPWHQHHHHHHAGLNDIFEAQKIEWHE
modifications: biotin on the BAP tag (BirA)
notes: also called bFcgR3; bFcgRIII
